Results from patent US20230357387A1 (published 2023).
Substitutions are numbered along the chain they refer to.

B1: 51B12 H0L3 (antibody)
chain 1: not shown
chain 2: DIVLTQSPDSLAVSLGERATINCRASKSVSTSGYSYMHWYQQKPGQPPKFLIYLASNLESGVPDRFSGSGSGTDFTLTISSLQAEDVAVYYCQHSREVPYTFGGGTKVEIKRTVAAPSVFIFPPSDEQLKSGTASVVCLLNNFYPREAKVQWKVDNALQSGNSQESVTEQDSKDSTYSLSSTLTLSKADYEKHKVYACEVTHQGLSSPVTKSFNRGEC
B2: 63A11 H0L1 (antibody)
chain 1: not shown
chain 2: B1 chain 2 with F50L, V98L, Y100L

Columns and labels:
[1] = target: T1, human ZIP12 extracellular domain expressed as a GST fusion protein (UniProt Q504Y0 1-202); experiment: SPR; replicate 1
[2] = target: T1, human ZIP12 extracellular domain …; experiment: SPR; replicate 2
[3] = target: T1, human ZIP12 extracellular domain …; experiment: SPR; summary value

T1 sequence (Q504Y0 1-202): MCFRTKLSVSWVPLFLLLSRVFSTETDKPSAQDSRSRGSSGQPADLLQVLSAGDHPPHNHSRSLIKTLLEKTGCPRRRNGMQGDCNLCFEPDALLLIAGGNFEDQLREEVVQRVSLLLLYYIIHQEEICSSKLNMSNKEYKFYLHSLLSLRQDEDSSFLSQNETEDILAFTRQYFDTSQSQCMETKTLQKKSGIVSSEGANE

Binder	Kd [1] [nM]	Kd [2] [nM]	Kd [3] [nM]
B1	0.605	0.785	0.7
B2	–	–	0.9
